The target in experiment [1] is T1, OSBP (Homo sapiens, UniProt P22059).
T1 construct: full-length, Flag-tagged, tag kept; 807 residues (deletion series ends at 807)
Description: liposome sterol transfer, DHE to dansyl-PE FRET. It is filed as biochemical. The following applies: lipid transfer substrate (not catalysis); with RELCH, Rab11a(Q70A)-His/GTP and myristoylated Arf1(Q71L)-Flag; RE-like donor and Golgi-like PI4P acceptor liposomes; 200 nM OSBP; pH 7.2; room temperatur.

Experiment [2] addresses T2, untagged RELCH (mouse, UniProt Q148V7 1-1216).
T2 construct: RELCH/KIAA1468, mouse, cDNA NM_173187.3, with an N-terminal PreScission protease recognition site; no limits are stated; Residues of the PreScission site may be left at the N-terminus after cleavage; source: E. coli XL-1 blue (pQE32), purified (Ni-NTA agarose), His tag removed with PreScission protease; not shown: His, N-terminal, cleaved
T2 sequence (looked up): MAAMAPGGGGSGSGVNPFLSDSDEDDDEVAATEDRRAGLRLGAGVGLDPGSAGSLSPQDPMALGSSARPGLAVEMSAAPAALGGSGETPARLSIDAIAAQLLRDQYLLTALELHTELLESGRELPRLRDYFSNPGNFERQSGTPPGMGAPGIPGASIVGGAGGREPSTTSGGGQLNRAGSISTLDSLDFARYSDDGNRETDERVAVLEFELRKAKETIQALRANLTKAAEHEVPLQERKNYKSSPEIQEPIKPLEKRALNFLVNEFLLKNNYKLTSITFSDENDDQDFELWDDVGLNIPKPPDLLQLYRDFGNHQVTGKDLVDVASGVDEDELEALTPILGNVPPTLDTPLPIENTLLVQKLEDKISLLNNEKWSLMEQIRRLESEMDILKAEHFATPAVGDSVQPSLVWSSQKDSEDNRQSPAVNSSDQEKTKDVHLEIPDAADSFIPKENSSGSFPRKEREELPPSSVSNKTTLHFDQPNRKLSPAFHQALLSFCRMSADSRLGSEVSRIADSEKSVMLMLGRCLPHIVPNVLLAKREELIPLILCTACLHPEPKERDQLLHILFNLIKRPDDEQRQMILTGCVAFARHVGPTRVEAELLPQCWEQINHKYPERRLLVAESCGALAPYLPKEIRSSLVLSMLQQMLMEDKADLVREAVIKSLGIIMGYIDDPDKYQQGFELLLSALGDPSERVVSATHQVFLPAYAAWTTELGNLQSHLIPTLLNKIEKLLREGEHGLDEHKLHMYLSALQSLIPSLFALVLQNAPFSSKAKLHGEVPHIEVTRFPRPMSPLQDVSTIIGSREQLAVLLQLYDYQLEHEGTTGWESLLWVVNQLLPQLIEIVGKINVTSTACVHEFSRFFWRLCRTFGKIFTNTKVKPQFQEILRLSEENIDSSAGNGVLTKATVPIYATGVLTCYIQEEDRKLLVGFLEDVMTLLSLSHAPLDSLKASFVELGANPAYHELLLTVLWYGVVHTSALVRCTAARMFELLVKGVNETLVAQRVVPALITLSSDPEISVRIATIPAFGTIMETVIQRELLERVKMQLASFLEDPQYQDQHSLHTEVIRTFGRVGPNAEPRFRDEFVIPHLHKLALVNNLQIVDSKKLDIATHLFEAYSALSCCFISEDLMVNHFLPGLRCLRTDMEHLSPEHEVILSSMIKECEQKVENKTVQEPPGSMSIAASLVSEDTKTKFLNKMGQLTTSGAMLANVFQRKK
The experiment is described as follows: silica bead-based liposome binding assay; silica beads coated with RE-like liposomes (DOGS-NTA(Ni), Rho-PE) prebound with 5 µM Rab11a (Q70A)-His, then 200 nM untagged RELCH, 30 min at 4°C in HKM buffer with 1 mM GTP and BSA; stained with Rab11 or RELCH antibodies. To be noted: both partners purified.

Experiment [3] deals with T3, GST-RELCH_(497-779) (Rab-binding domain) (mouse, UniProt Q148V7 497-779).
T3 construct: also called GST-RELCH (RBD); source: E. coli Rosetta II (pFAT2), purified (Ni-NTA agarose); not shown: GST, N-terminal, kept
T3 sequence (looked up): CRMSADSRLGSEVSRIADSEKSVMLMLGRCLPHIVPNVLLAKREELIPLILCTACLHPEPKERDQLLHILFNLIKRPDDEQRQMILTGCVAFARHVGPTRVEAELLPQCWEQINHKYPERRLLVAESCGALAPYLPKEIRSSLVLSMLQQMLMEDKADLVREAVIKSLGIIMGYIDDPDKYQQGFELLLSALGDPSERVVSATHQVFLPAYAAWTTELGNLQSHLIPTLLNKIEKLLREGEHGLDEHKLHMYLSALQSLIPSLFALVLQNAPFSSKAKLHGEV
Description: pull-down; 10 µg GST-RELCH (RBD) on 20 µl Glutathione Sepharose 4B, 10 µg Rab11a (Q70A)-His loaded with GTP in 500 µl; immunoblot with Rab11 and GST antibodies. The following applies: both partners purified. For orientation: A western blot detects proteins with antibodies after separation by electrophoresis.

Experiment [4] deals with T4, His-RELCH (mouse, UniProt Q148V7 1-1216).
T4 construct: RELCH/KIAA1468, mouse, cDNA NM_173187.3 amplified from a mouse embryo cDNA library; no limits are stated for this construct (deletion constructs are named by their ranges); also called purified recombinant RELCH; His-RELCH protein; source: E. coli XL-1 blue (pQE32tev), purified (Ni-NTA agarose); not shown: His, N-terminal, kept
T4 sequence (looked up): T2 sequence (looked up)
The experiment is described as follows: pull-down; 10 µg GST-Rab11a Q70A (GTP) on 20 µl Glutathione Sepharose 4B, 20 µg His-RELCH in 500 µl; immunoblot with RELCH and GST antibodies. The following applies: both partners purified.

For experiment [5], the target named is T4, His-RELCH. Description: pull-down; 0.5 µg His-RELCH on Ni-NTA beads, 0.5 µg Flag-OSBP in 20 mM Hepes-NaOH pH 7.5, 100 mM NaCl, 5 mM MgCl2 with ethanol, cholesterol or 25-OH, 1 h at 4°C; immunoblot with His and Flag antibodies. The following applies: both partners purified.

T1 sequence (P84077 2-181 Q71L partner, one chain of several): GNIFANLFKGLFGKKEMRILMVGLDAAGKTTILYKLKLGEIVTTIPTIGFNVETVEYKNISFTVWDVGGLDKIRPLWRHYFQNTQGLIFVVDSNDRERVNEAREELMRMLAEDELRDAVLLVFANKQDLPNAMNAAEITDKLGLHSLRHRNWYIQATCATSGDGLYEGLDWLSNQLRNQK

For the molecule `CC(C)[C@@H](C)/C=C/[C@@H](C)[C@H]1CC[C@H]2C3=CC=C4C[C@@H](O)CC[C@]4(C)C3=CC[C@]12C` [DHE, dehydroergosterol], the “liposome sterol transfer, DHE to dansyl-PE FRET” value in experiment [1] is reported as “the DHE transfer occurred in a RELCH dose-dependent manner”.

B1: Rab11a (Q70A)-His, loaded with GTP (natural protein, mouse, UniProt P62492 1-216, looked up)
chain: MGTRDDEYDYLFKVVLIGDSGVGKSNLLSRFTRNEFNLESKSTIGVEFATRSIQVDGKTIKAQIWDTAGAERYRAITSAYYRGAVGALLVYDIAKHLTYENVERWLKELRDHADSNIVIMLVGNKSDLRHLRAVPTDEARAFAEKNGLSFIETSALDSTNVEAAFQTILTEIYRIVSQKQMSDRRENDMSPSNNVVPIHVPPTTENKPKVQCCQNI
notes: Rab11a, mouse, GTP-locked mutant Q70A, cloned without a stop codon into pET28c; Loaded with GTP in the assays; on liposomes it is held through its His tag by DOGS-NTA(Ni); also called His6×-tagged Rab11a-GTP; Rab11a-GTP; source: E. coli Rosetta II (pET28c), purified (cOmplete His-tag purification resin, EDTA wash, nucleotide-free); not shown: His6, C-terminal, kept
Regarding B1, the binding result in experiment [2] and in experiment [3] was “binds” each time.

B2: GST-Rab11a Q70A, loaded with GTP (natural protein, UniProt P62491 1-216, looked up)
chain: B1 chain
notes: Rab11a; GTP-locked mutant Q70A; the pFAT2 His-GST-Rab constructs were made as in Haas et al., 2005 and Yoshimura et al., 2007; also called GTP-loaded Rab11a; GST-Rab11-GTP; source: E. coli Rosetta II (pFAT2), purified (Ni-NTA agarose); not shown: GST, N-terminal, kept
For the molecule B2, the binding result in experiment [4] is listed as “binds”.

B3: Flag-OSBP, full length (natural protein, human, UniProt P22059 1-807, looked up)
chain: MAATELRGVVGPGPAAIAALGGGGAGPPVVGGGGGRGDAGPGSGAASGTVVAAAAGGPGPGAGGVAAAGPAPAPPTGGSGGSGAGGSGSAREGWLFKWTNYIKGYQRRWFVLSNGLLSYYRSKAEMRHTCRGTINLATANITVEDSCNFIISNGGAQTYHLKASSEVERQRWVTALELAKAKAVKMLAESDESGDEESVSQTDKTELQNTLRTLSSKVEDLSTCNDLIAKHGTALQRSLSELESLKLPAESNEKIKQVNERATLFRITSNAMINACRDFLMLAQTHSKKWQKSLQYERDQRIRLEETLEQLAKQHNHLERAFRGATVLPANTPGNVGSGKDQCCSGKGDMSDEDDENEFFDAPEIITMPENLGHKRTGSNISGASSDISLDEQYKHQLEETKKEKRTRIPYKPNYSLNLWSIMKNCIGKELSKIPMPVNFNEPLSMLQRLTEDLEYHELLDRAAKCENSLEQLCYVAAFTVSSYSTTVFRTSKPFNPLLGETFELDRLEENGYRSLCEQVSHHPPAAAHHAESKNGWTLRQEIKITSKFRGKYLSIMPLGTIHCIFHATGHHYTWKKVTTTVHNIIVGKLWIDQSGEIDIVNHKTGDKCNLKFVPYSYFSRDVARKVTGEVTDPSGKVHFALLGTWDEKMECFKVQPVIGENGGDARQRGHEAEESRVMLWKRNPLPKNAENMYYFSELALTLNAWESGTAPTDSRLRPDQRLMENGRWDEANAEKQRLEEKQRLSRKKREAEAMKATEDGTPYDPYKALWFERKKDPVTKELTHIYRGEYWECKEKQDWSSCPDIF
notes: OSBP, human, amplified from pOTB7-OSBP, in pcDNA5/FRT/TO-Flag; also called Flag-tagged OSBP; source: HEK293FT, transfected, in lysate; Flp-In–293, transfected, in lysate; not shown: Flag, N-terminal, kept
As for B3, the binding result in experiment [5] is reported as “binds”.

Values taken from paper PMC5940305, “The Rab11-binding protein RELCH/KIAA1468 controls intracellular cholesterol distribution” (The Journal of Cell Biology, 2018).
